Residue numbers refer to the chain shown, from its start.
B1: mAb14312 (antibody, V domains shown)
VH: EVQLVESGGGLVQPGGSLRLSCAASGFTVSRSYMTWVRQAPGKGLEWVSVIFTGGRTDHADSVKGRFTISRHNSKNTLYLQMNSLRTEDTAVYYCARVAIVGATGAFDIWGQGTMVTVSS
VL: QSVLTQPPSVSGAPGQRVTISCTGSSSNIGAGDDVHWYQQLPGTAPKLLIYGNSNRPSGVPDRFSGSKSGTSASLAITGLQAEDEADYYCQSYDSSLSGSVVFGGGTKLTVLG
B2: mAb14284 (antibody, V domains shown)
VH: QITLKESGPTLVKPTQTLTLTCTFSGFSFSTSGVGVGWIRQPPGKTLEWLALIYWDDDKRYSPSLKSRLTITKDTSKNQVVLTMTNMDPVDTATYFCAHHGIPTIFGYWGQGALVTVSS
VL: QSALTQPASVSGSPGQSITISCTGTSSDLGVFNYVSWYQQHPGKAPKLMIYEVTNRPSGVSNRFSGSKSGNTASLTISGLQAEDEADYYCSSYTTSSTVFGGGTKLTVLG
B3: mAb14294 (antibody, V domains shown)
VH: EVQLVESGGGLVQPGGSLRLSCAASGFTFSNHWMDWVRQAPGKGLVWVSRINSDGSSTDYADSVRGRFTMSRDNAKNTLYLQMSSLRAEDTAVYYCAREGMIFGAVIIPGWYFDLWGRGALVTVSS
VL: EIVLTQSPGTLSLSPGERATLSCRASQSVSSSQLAWYQQKPGQAPRLLIYGASSRATGIPDRFSGSGSGTDFTLTISRLEPEDFAVYYCQQYDSFGQGTKLEIKR
B4: mAb14283 (antibody, V domains shown)
VH: QVQLQESGPGLVKPSGTLSLTCDVSGGSISSNNWWSWVRQRPGKGLQWIGEIYHNENTNYNPSLKSRVIMSIDKSKNQFSLKLTSVTAADTAVYYCARGDVLDWFDPWGQGTLVTVSS
VL: QSALTQPASVSGSPGQSTTISCTGTSSDVGGYNYVSWYQQYPGKAPKLMIYDVTNRPSGVSHRFSGSKSGNTASLTISGLQAEDEADYYCSSYTSSSTVIFGGGTKLTVLG
B5: mAb14235 (antibody, V domains shown)
VH: QITLKESGPTLVKPTQTLTLTCTFSGFSLNTGGVGVGWIRQPPGNALEWLALIYWDDDKRYNPSLKTRLTISKDTSKNQVVLTMTNMDPVDTATYFCAHLTIAVIVDFWGQGTLVTVSS
VL: B2 VL with G24A, L29V, V31T, F32Y, Y38F, Q40H, S96T, T98I
B6: mAb14289 (antibody, V domains shown)
VH: QVQLVQSGPEVKKPGASVKVSCKASGYTFTSYAISWVRQAPGQGLEWMGWISAYNGNTNYAQKLQGRVTMTTDTFTSTAYMELRSLRSDDTAVYYCAVPADHITFDYWGQGTLVTVSS
VL: EIVLTQSPGTLSLSPGERATLSCRASQSVSSYLAWYQQKPGQAPRLLIHGASSRATGIPDRFSGSGSGTDFTLTISRLEPEDFAVYYCQQYGSSFLTFGGGTKVEIKR
B7: mAb13458 (antibody, V domains shown)
VH: EVQLVESGGGLVQPGRSLRLSCAASGFTFDDYAMHWVRQAPGKGLEWVSGISWNSGSIGYADSVKGRFTISRDNAKNSLYLQMNSLRAEDTALYYCAKDIGITTPYWGQGTLVTVSS
VL: AIQMTQSPSSLSASVGDRVTITCRASQDIRNDLGWYQQKPGKAPKLLIYSASSLQTGVPSRFSGSGSGTDFTLTISSLHPEDFATYYCLQDYWYTWTFGQGTKVEIKR
B8: mAb13459 (antibody, V domains shown)
VH: B7 VH
VL: B7 VL with W93N, T95V
B9: mAb14313 (antibody, V domains shown)
VH: EVQLVESGGGLVQPGRSLRLSCVASGFTFDDSAMHWVRQPPGKGLEWVSGISWNSGIIGYAESVKGRFIISRDNAKNSLFLHMRGLRPEDTAVYYCARDRLELSYYYYGMDVWGQGTTVTVSS
VL: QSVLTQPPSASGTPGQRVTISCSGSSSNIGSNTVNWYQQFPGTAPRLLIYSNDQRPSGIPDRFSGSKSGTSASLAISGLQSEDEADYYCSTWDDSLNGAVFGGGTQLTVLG
B10: mAb14247 (antibody, V domains shown)
VH: QITLKESGPTLVKPTQTLTLTCTFSGFSLSTSAVGVGWIRQPPGKALEWLALIYWDDDKRYSPSLKSRLTITKDTSKNQLVLTMTNVDPVDTATYYCAHHTIQLIFDYWGQGTLVTVSS
VL: QSALTQPASVSGSPGQSITISCTATSSDVGNYNYVSWYQQHPGKAPKLMIYEVSNRPSGVSNRFSGSKSGNTASLTISGLQAEDEADYYCSSYTSSSTPLVFGGGTKLTVLG
B11: mAb14315 (antibody, V domains shown)
VH: QVQLVQSGAEVKKPGSSVKVSCKASGDTFSTYAINWVRQAPGQGLEWMGRFIHIFGTANYAQKFQGRVTITADESTSTAYMELRSLRSEDTAVYYCARDGVDYGDYRPDYWGQGTLVTVSS
VL: EIVLTQSPGTLSLSPGERATLSCRASQSVSSNYLAWYQQKPGQAPRLLIYGASSRATGIPERFSGSGSGTDFTLTISRLEPEDFAVYYCQQYGSSLYTFGQGTKLEIKR
B12: mAb15150 (antibody, V domains shown)
VH: EVQLVETGGGLIQPGGSLRLSCAAPGFIVSSNYMSWVRQAPGKGLEWVSLLYPGGSTYYADSVKGRFTISRDNSKNTLYLQMNSLRADDTAVYYCARVLPIVEDHFDYWGQGTLVTVSS
VL: DIQLTQSPSFLSASVGDRVTITCRASQGMSSYLAWYQKKPGKAPKLLIYGATILQSGVPSRFSGSGSGTEFTLTISSLQPEDFATYYCQQLNSDPLYMYTFGQGTKLEIKR
B13: mAb14258 (antibody, V domains shown)
VH: QLQLQESGPGLVKPSETLSLICTGSGDSISSSHYYWGWIRQPPGKGLEWIGSTYFSGSTYYNPSLKSRVSISVDTSKNQVSLKLISVTAADTAVYYCAREMGATLGDYWGPGTLVTVSS
VL: QSVLTQPPSASGTPGQRVTISCSGSSSNIGNNYVYWYQQFPGTTPRLLIYRNNERPSGVPDRFSGSKSGTSASLVISGLRSEDEADYYCAAWDDSLSAHYVFGTGTKVTVLG
B14: mAb15151 (antibody, V domains shown)
VH: QVQLVESGGGVVQPGRSLRLSCAASGFVFNSYGMHWVRQAPGKGLEWVAVLWYEGSKNYYADSVKGRFTISRDNSKNTLYLQMNSLRAEDTAVYYCARHGSGSFFGYYLDYWGQGTLVTVSS
VL: DIQMTQSPSSLSASVGDRVTITCRASHNINDFLNWYQQKPGKAPRLLIYAASSLQSGVPSRFSGSGSGTDFTLTISSLQPEDFATYYCQESYTTPPTFGQGTKLEIKR
B15: mAb14312 (antibody, V domains shown)
VH: B1 VH
VL: B1 VL
B16: mAb14284 (antibody, V domains shown)
VH: B2 VH
VL: B2 VL

The binders below were run against T1, SARS-COV-2 RBD extracellular domain expressed with a C-terminal mouse IgG2a Fc (SARS-CoV-2) (assay: Biacore SPR, mAb captured on anti-hFc, 37 C).

Row | Binder | Kd [nM] | koff [s⁻¹] | kon [M⁻¹ s⁻¹] | t½ [min]
1 | B1 | 0.0347 | 5.8e-05 | 1.67e+06 | 199
2 | B2 | 0.027 | 2.24e-05 | 830000 | 516
3 | B3 | 0.0386 | 3.5e-05 | 906000 | 330
4 | B4 | 0.0631 | 9.59e-05 | 1.52e+06 | 120
5 | B5 | 0.0612 | 6.68e-05 | 1.09e+06 | 173
6 | B6 | 0.0907 | 0.000128 | 1.41e+06 | 90.1
7 | B7 | 0.0784 | 9.12e-05 | 1.16e+06 | 127
8 | B8 | 0.0939 | 9.24e-05 | 985000 | 125
9 | B9 | 0.0582 | 0.000146 | 2.52e+06 | 78.9
10 | B10 | 0.127 | 0.00015 | 1.18e+06 | 77
11 | B11 | 0.0903 | 7.91e-05 | 877000 | 146
12 | B12 | 0.0296 | 2.8e-05 | 946000 | 412

These binders were tested against T1, SARS-COV-2 RBD extracellular domain … (assay: Biacore SPR, mAb captured on anti-hFc, 25 C).

Row | Binder | Kd [nM] | koff [s⁻¹] | kon [M⁻¹ s⁻¹] | t½ [min]
13 | B1 | 0.0334 | 5.6e-05 | 1.68e+06 | 206
14 | B2 | 0.0255 | 2.12e-05 | 831000 | 545
15 | B13 | 3.04 | 0.000109 | 35600 | 106
16 | B3 | 0.0294 | 2.68e-05 | 911000 | 430
17 | B4 | 0.0524 | 8.14e-05 | 1.55e+06 | 142
18 | B5 | 0.0627 | 6.89e-05 | 1.1e+06 | 168
19 | B6 | 0.0628 | 8.95e-05 | 1.43e+06 | 129
20 | B7 | 0.064 | 7.55e-05 | 1.18e+06 | 153
21 | B9 | 0.0422 | 9.97e-05 | 2.36e+06 | 116
22 | B10 | 0.131 | 0.000156 | 1.19e+06 | 73.9
23 | B11 | 0.0784 | 6.26e-05 | 799000 | 184

Each binder was assayed against T2, SARS-CoV2 Spike ecto foldon Trimer expressed with a C-terminal myc-myc-hexahistidine (SARS-CoV-2, UniProt P0DTC2 14-1213) (assay: SPR Biacore, mAb captured by anti-hFc, 37C).
T2 construct: extracellular domain

Row | Binder | Kd [nM] | koff [s⁻¹] | kon [M⁻¹ s⁻¹] | t½ [min]
24 | B14 | 0.129 | 0.000248 | 1.92e+06 | 46.6
25 | B15 | 0.0563 | 5.44e-05 | 966000 | 212
26 | B16 | 0.0251 | 2.05e-05 | 814000 | 565

What follows are binders tested against T2, SARS-CoV2 Spike ecto foldon Trimer … (assay: SPR Biacore, mAb captured by anti-hFc, 25C).

Row | Binder | Kd [nM] | koff [s⁻¹] | kon [M⁻¹ s⁻¹] | t½ [min]
27 | B14 | 0.187 | 6.26e-05 | 335000 | 184
28 | B15 | 0.0272 | 5.24e-05 | 1.93e+06 | 220
29 | B16 | 0.0161 | 1.31e-05 | 812000 | 883
